{"source": "ChEMBL document CHEMBL1127885", "about": "“Benzylpenicillin methyl phosphate. A penicillin prodrug that inactivates RTEM -lactamase” (Bioorg Med Chem Lett, 1994)", "proteins": {"B1": {"name": "Beta-lactamase TEM (Escherichia coli), P62593 (protein)", "chain": "MSIQHFRVALIPFFAAFCLPVFAHPETLVKVKDAEDQLGARVGYIELDLNSGKILESFRPEERFPMMSTFKVLLCGAVLSRVDAGQEQLGRRIHYSQNDLVEYSPVTEKHLTDGMTVRELCSAAITMSDNTAANLLLTTIGGPKELTAFLHNMGDHVTRLDRWEPELNEAIPNDERDTTMPAAMATTLRKLLTGELLTLASRQQLIDWMEADKVAGPLLRSALPAGWFIADKSGAGERGSRGIIAALGPDGKPSRIVVIYTTGSQATMDERNRQIAEIGASLIKHW"}}, "substrate": "COP(=O)(O)OC(=O)[C@@H]1N2C(=O)[C@@H](NC(=O)Cc3ccccc3)[C@H]2SC1(C)C", "assay": "Km against beta-lactamase in Escherichia coli", "data": [{"protein": "B1", "values": [{"measurement": "Km", "value": "> 50", "unit": "mM"}]}]}
